Molecular target: T1, human G-CSF receptor transfected in BaF3 cells (human, UniProt Q99062 25-836)
T1 construct: whole, on cells; also called hG-CSF receptor; BaF3/hG-CSF
Assay: competition with an agonist-specific radioligand, BaF3 cells transfected with the G-CSF receptor

IC50: 0.69 nM
B1: G-CSF (ligand)
chain: not shown
